Source: patent US20060280751A1

Assays:
[1] = target: envelope glycoprotein gp120 of HIV-1 laboratory strain SF2 (HIV-1 SF2 strain); assay: cell-based or functional assay
[2] = target: envelope glycoprotein gp120 of HIV-1 laboratory strain AD8 (HIV-1 AD8 strain); assay: cell-based or functional assay
[3] = target: envelope glycoprotein gp120 of HIV-1 laboratory strain 89.6 (HIV-1 89.6 strain) (UniProt Q73372); assay: cell-based or functional assay
[4] = target: envelope glycoprotein gp120 of HIV-1 laboratory strain MN (HIV-1 MN strain) (UniProt P05877); assay: cell-based or functional assay
[5] = target: envelope glycoprotein gp120 of HIV-1 laboratory strain IIIB (HIV-1 IIIB strain); assay: cell-based or functional assay
[6] = target: V3/β-Gal from patients' HIV-1 clones with IGPGRSF in the middle portion of V3 region (HIV-1 from patients); assay: sandwich ELISA: V3/β-Gal (200 ng/ml) captured by anti-β-Gal antibody, 1 µg/ml KD-247
[7] = target: V3/β-Gal from patients' HIV-1 clones with IGPARAF in the middle portion of V3 region (HIV-1 from patients); assay: as above
[8] = target: V3/β-Gal from patients' HIV-1 clones with IGPGRAL in the middle portion of V3 region (HIV-1 from patients); assay: as above
[9] = target: V3/β-Gal from patients' HIV-1 clones with IGPGRAI in the middle portion of V3 region (HIV-1 from patients); assay: as above
[10] = target: V3/β-Gal from patients' HIV-1 clones with VGPGRAL in the middle portion of V3 region (HIV-1 from patients); assay: as above
[11] = target: V3/β-Gal from patients' HIV-1 clones with IGPGRTF in the middle portion of V3 region (HIV-1 from patients); assay: as above
[12] = target: V3/β-Gal from patients' HIV-1 clones with IGPGRAF in the middle portion of V3 region (HIV-1 from patients); assay: as above

For “KD-247, a humanized monoclonal antibody to PND region”, the Neutralizing activity IC50 (p24 antigen in PBMC culture) [1] was 1 µg/mL, the Neutralizing activity IC90 (p24 antigen in PBMC culture) [1] was 5 µg/mL and the Neutralizing activity IC50 (p24 antigen in PBMC culture) [2] was 5 µg/mL. It also gave a Neutralizing activity IC90 (p24 antigen in PBMC culture) [2] of 10 µg/mL, a Neutralizing activity IC50 (p24 antigen in PBMC culture) [3] of 0.2 µg/mL and a Neutralizing activity IC90 (p24 antigen in PBMC culture) [3] of 2.5 µg/mL. The Neutralizing activity IC50 (p24 antigen in PBMC culture) [4] was 0.1 µg/mL, the Neutralizing activity IC90 (p24 antigen in PBMC culture) [4] was 1 µg/mL and the Neutralizing activity IC50 (p24 antigen in PBMC culture) [5] was over 50 µg/mL. It also gave a Neutralizing activity IC90 (p24 antigen in PBMC culture) [5] of over 50 µg/mL, a relative binding (% of V3/β-Gal from MN strain) [6] of over 100% and a relative binding (% of V3/β-Gal from MN strain) [7] of over 100%. The relative binding (% of V3/β-Gal from MN strain) [8] was over 100%, the relative binding (% of V3/β-Gal from MN strain) [9] was over 100% and the relative binding (% of V3/β-Gal from MN strain) [10] was over 100%. For the same substance, the relative binding (% of V3/β-Gal from MN strain) [11] was over 100% and the relative binding (% of V3/β-Gal from MN strain) [12] was over 100%.
